# Experimental data: patent publication US20110136232A1 (MAYO FOUNDATION FOR MEDICAL EDUCATION AND RESEARCH, published 2011)
# T1: 3x HA-tagged FAK FERM domain (FAK residues R35-P362) (UniProt Q05397 35-362)
# T1 construct: range 35-362
# T1 sequence (looked up): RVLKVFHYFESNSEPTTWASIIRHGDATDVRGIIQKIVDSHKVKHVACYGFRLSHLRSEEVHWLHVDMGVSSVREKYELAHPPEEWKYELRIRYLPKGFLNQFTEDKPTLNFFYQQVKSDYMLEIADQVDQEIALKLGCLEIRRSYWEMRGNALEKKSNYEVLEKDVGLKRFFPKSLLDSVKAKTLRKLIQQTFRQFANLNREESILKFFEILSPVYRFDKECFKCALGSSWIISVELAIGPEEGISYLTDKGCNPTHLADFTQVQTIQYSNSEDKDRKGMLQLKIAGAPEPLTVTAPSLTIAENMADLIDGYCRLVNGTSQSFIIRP
# How the values were obtained:
# FLAG tagged Pyk2 I308E = target: T2, FLAG tagged Pyk2 I308E (UniProt Q14289 1-1009, limits assumed); assay: anti-FLAG immunoprecipitation and 12A10 immunoblot
# T2 construct: mature; also called Pyk2 with substitution of I308
# Description: (§1) FIG. 2 (bottom panel) depicts a Western blot using anti-Pyk2 12A10 monoclonal antibody. SF767 cells were transfected with FLAG epitope tagged wild type (WT) Pyk2 or Pyk2 with the indicated amino acid substitution. Cells were lysed, Pyk2 was immunoprecipitated with anti-FLAG mAb, and immunoprecipitates immunoblotted with anti FLAG, anti-phosphotyrosine mAb pY20 or mAb 12A10. FIG. 2 (top) is a three dimensional model of the Pyk2 FERM with the locations of interacting residues, indicated by Arial font and non-interacting surfaces indicated by Times Roman font.
# (§2) Immunoprecipitation of cleared lysates was performed as described elsewhere (Lipinski et al., Biochem. Biophys. Res. Commun., 349:939-947 (2006)). For immunoblotting, equal amounts of protein (10-20 μg) were electrophoresed on 8-16% gradient SDS-PAGE gels (Invitrogen, Carlsbad, Calif.) and transferred to nitrocellulose. Immunoblotting of transferred proteins was performed with the appropriate primary antibodies for 1 hour at room temperature and was visualized by enhanced chemiluminescence (Perkin Elmer Life Sciences, Boston, Mass.).
# FLAG tagged Pyk2 D346A = target: T3, FLAG tagged Pyk2 D346A (UniProt Q14289 1-1009, limits assumed); assay: anti-FLAG immunoprecipitation and 12A10 immunoblot
# T3 construct: mature; also called Pyk2 with substitution of D346
# Description: as §1, §2
# FLAG tagged Pyk2 W104A = target: T4, FLAG tagged Pyk2 W104A (UniProt Q14289 1-1009, limits assumed); assay: anti-FLAG immunoprecipitation and 12A10 immunoblot
# T4 construct: mature; also called Pyk2 with substitution of W104
# Description: as §1, §2
# FLAG tagged Pyk2 Y135C = target: T5, FLAG tagged Pyk2 Y135C (UniProt Q14289 1-1009, limits assumed); assay: anti-FLAG immunoprecipitation and 12A10 immunoblot
# T5 construct: mature; also called Pyk2 with substitution of Y135
# Description: as §1, §2
# FLAG tagged Pyk2 R306E = target: T6, FLAG tagged Pyk2 R306E (UniProt Q14289 1-1009, limits assumed); assay: anti-FLAG immunoprecipitation and 12A10 immunoblot
# T6 construct: mature; also called Pyk2 with substitution of R306
# Description: as §1, §2
# [1] = target: T7, HA-epitope tagged wild type FAK (UniProt Q05397 2-1052, limits assumed); assay: Western blot of lysates of transfected SF767 cells
# T7 construct: mature; also called full length FAK; tyrosine kinase FAK
# Pyk2 FERM (FAKF3) = target: T8, Pyk2 FERM (FAKF3) (UniProt Q14289 39-260; Q05397 254-362); assay: Western blot of lysates of transfected SF767 cells
# T8 construct: range 39-260;range 254-362; A chimera made by splice overlap extension PCR; The range 39-260 of Pyk2 is derived from the printed limits of the FERM domain (R39-A366) and the F3 module (D261-A366); also called Pyk2 FERM domain containing the FAK FERM F3 domain
# [2] = target: T1, 3x HA-tagged FAK FERM domain (FAK …); assay: Western blot of lysates of transfected SF767 cells
# Pyk2 FERM I308E variant = target: T9, Pyk2 FERM I308E variant (UniProt Q14289 39-366); assay: capture sandwich ELISA with hybridoma supernatant
# T9 construct: domain: FERM domain; Printed once as '1308E' (a misprint of I308E); also called Pyk2 FERM variant 1308E
# T9 sequence (Q14289 39-366 I308E): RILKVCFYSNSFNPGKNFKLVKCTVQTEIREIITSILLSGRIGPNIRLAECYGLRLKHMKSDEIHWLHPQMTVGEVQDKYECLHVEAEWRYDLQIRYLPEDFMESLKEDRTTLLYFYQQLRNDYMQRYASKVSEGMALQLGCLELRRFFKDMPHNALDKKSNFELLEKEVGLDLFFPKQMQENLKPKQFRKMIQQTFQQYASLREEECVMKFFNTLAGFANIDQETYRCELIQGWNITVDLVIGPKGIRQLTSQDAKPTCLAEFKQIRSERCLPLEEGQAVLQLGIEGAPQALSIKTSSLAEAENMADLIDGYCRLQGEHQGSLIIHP
# T4 sequence (Q14289 whole entry W104A): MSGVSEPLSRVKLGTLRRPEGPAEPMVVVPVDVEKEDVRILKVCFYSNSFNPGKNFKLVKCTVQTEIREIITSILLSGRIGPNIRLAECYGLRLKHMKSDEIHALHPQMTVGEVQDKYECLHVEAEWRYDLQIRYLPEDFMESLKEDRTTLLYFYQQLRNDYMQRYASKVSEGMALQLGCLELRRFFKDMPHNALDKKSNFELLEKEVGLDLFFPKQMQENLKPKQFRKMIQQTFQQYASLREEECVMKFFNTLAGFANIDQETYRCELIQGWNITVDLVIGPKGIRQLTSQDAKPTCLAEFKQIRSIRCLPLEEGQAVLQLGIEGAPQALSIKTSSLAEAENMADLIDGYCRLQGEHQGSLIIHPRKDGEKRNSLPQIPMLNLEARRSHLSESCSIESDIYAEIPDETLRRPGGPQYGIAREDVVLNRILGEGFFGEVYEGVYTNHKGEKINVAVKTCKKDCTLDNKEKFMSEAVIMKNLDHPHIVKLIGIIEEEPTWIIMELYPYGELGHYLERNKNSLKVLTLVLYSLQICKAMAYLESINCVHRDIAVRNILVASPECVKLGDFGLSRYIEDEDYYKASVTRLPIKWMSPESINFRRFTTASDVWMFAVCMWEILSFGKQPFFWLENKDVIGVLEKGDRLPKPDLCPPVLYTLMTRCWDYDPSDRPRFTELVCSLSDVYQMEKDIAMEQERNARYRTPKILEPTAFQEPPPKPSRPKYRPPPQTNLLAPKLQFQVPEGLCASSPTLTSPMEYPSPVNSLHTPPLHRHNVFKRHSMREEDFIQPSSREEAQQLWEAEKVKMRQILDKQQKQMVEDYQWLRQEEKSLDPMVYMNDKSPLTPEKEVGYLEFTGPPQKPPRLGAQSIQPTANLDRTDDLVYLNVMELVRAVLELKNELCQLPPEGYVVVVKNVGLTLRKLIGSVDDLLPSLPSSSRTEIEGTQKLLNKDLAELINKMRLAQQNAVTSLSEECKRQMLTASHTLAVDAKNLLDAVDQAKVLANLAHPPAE
# T6 sequence (Q14289 whole entry R306E): as the sequence (Q14289 whole entry W104A) above, with A104W, R306E counted along it
# T3 sequence (Q14289 whole entry D346A): as the sequence (Q14289 whole entry W104A) above, with A104W, D346A counted along it
# T5 sequence (Q14289 whole entry Y135C): as the sequence (Q14289 whole entry W104A) above, with A104W, Y135C counted along it
# T2 sequence (Q14289 whole entry I308E): as the sequence (Q14289 whole entry W104A) above, with A104W, I308E counted along it
# T7 sequence (Q05397 2-1052 limits assumed): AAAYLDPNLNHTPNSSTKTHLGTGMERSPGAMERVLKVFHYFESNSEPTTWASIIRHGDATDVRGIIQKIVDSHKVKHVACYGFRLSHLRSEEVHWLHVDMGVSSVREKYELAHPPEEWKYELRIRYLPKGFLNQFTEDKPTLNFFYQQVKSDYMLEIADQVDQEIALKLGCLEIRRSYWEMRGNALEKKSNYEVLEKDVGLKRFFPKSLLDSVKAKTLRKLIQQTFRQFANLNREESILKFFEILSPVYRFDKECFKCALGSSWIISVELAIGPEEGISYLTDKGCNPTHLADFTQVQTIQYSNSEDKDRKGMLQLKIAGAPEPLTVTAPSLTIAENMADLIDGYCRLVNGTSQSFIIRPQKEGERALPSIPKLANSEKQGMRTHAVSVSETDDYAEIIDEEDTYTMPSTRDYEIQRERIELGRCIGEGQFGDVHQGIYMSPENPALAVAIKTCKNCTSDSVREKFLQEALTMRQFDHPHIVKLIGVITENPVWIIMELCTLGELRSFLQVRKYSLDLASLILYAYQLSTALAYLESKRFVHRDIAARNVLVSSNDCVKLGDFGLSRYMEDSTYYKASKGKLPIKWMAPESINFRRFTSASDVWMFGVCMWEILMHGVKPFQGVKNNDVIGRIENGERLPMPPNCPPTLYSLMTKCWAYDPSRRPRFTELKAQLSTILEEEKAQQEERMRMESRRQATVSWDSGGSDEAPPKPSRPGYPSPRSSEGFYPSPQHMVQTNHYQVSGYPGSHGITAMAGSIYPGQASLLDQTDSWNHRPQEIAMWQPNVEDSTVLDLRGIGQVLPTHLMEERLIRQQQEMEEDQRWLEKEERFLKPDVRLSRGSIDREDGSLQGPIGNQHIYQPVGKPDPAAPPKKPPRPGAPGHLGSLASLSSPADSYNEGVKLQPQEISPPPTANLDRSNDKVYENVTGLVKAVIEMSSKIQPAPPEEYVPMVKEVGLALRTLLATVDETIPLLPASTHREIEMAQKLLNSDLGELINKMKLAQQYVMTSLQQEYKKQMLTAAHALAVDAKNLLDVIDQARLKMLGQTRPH
binder,measurement,setting,value
"mouse monoclonal antibody 12A10 (antibody, V domains shown, Mouse IgG1 from hybridoma 12A10, raised against the His-tagged Pyk2 F3 module (D261-A366); Used as hybridoma supernatant in the ELISA screen and as an antibody in the Western blots; also called mAb 12A10; anti-Pyk2 12A10 monoclonal antibody) VH: EVKLQESGPELKKPGETVKISCKASGYTFTDYSMHWVMQSPGKGLKWMGWINTETGEPRYVDDFKGRFAFSLETSASTAYLQIINLKNEDTATYFCARWDHGHGGFTYWGQGTLVTVSA VL: DIVLTQTTASLAVSLGQRATMSCRATESVDSYGKSFMYWFQQRAGQPPKLLIYLASNLESVVPPRFSGSGSRTDFSLTIDPVEADDAATYYCQQNNEDPFTFGSGTKLEIK",binding result,FLAG tagged Pyk2 I308E,no binding
same,binding result,FLAG tagged Pyk2 D346A,binds
same,binding result,FLAG tagged Pyk2 W104A,binds
same,binding result,FLAG tagged Pyk2 Y135C,binds
same,binding result,FLAG tagged Pyk2 R306E,no binding
same,binding result,[1],no binding
same,binding result,Pyk2 FERM (FAKF3),no binding
same,binding result,[2],no binding
same,binding result,Pyk2 FERM I308E variant,no binding
